Measured values as given in patent publication US9969998B2, “Compositions of adenosine deaminase-2 (ADA2), variants thereof and methods of using same” (Halozyme, Inc., priority 2014, dated 2018).
Positions count from the first letter of the chain named. Numbers in names are those of the source.

B1: K455D: ADA2 variant SEQ ID NO:26 (protein)
chain: IDETRAHLLLKEKMMRLGGRLVLNTKEELANERLMTLKIAEMKEAMRTLIFPPSMHFFQAKHLIERSQVFNILRMMPKGAALHLHDIGIVTMDWLVRNVTYRPHCHICFTPRGIMQFRFAHPTPRPSEKCSKWILLEDYRKRVQNVTEFDDSLLRNFTLVTQHPEVIYTNQNVVWSKFETIFFTISGLIHYAPVFRDYVFRSMQEFYEDNVLYMEIRARLLPVYELSGEHHDEEWSVKTYQEVAQKFVETHPEFIGIKIIYSDHRSKDVAVIAESIRMAMGLRIKFPTVVAGFDLVGHEDTGHSLHDYKEALMIPAKDGVKLPYFFHAGETDWQGTSIDRNILDALMLNTTRIGHGFALSKHPAVRTYSWKKDIPIEVCPISNQVLKLVSDLRNHPVATLMATGHPMVISSDDPAMFGAKGLSYDFYEVFMGIGGMKADLRTLKQLAMNSIDYSTLLESEKNTFMEIWKKRWDKFIADVATK
modifications: human ADA2 K452D, mature numbering
B2: K16A: ADA2 variant SEQ ID NO:16 (protein)
chain: B1 chain with K13A, D452K
modifications: human ADA2 K13A, mature numbering
B3: K16D: ADA2 variant SEQ ID NO:17 (protein)
chain: B1 chain with K13D, D452K
modifications: human ADA2 K13D, mature numbering
B4: K16E: ADA2 variant SEQ ID NO:18 (protein)
chain: B1 chain with K13E, D452K
modifications: human ADA2 K13E, mature numbering
B5: K455A: ADA2 variant SEQ ID NO:25 (protein)
chain: B1 chain with D452A
modifications: human ADA2 K452A, mature numbering
B6: K14A: ADA2 variant SEQ ID NO:13 (protein)
chain: B1 chain with K11A, D452K
modifications: human ADA2 K11A, mature numbering
B7: K14D: ADA2 variant SEQ ID NO:14 (protein)
chain: B1 chain with K11D, D452K
modifications: human ADA2 K11D, mature numbering
B8: H267N: ADA2 variant SEQ ID NO:36 (protein)
chain: B1 chain with H264N, D452K
modifications: human ADA2 H264N, mature numbering
B9: H267G: ADA2 variant SEQ ID NO:37 (protein)
chain: B1 chain with H264G, D452K
modifications: human ADA2 H264G, mature numbering
B10: R222K: ADA2 variant SEQ ID NO:38 (protein)
chain: B1 chain with R219K, D452K
modifications: human ADA2 R219K, mature numbering
B11: R222N: ADA2 variant SEQ ID NO:40 (protein)
chain: B1 chain with R219N, D452K
modifications: human ADA2 R219N, mature numbering
B12: R222A: ADA2 variant SEQ ID NO:41 (protein)
chain: B1 chain with R219A, D452K
modifications: human ADA2 R219A, mature numbering
B13: L224A: ADA2 variant SEQ ID NO:42 (protein)
chain: B1 chain with L221A, D452K
modifications: human ADA2 L221A, mature numbering
B14: L224V: ADA2 variant SEQ ID NO:43 (protein)
chain: B1 chain with L221V, D452K
modifications: human ADA2 L221V, mature numbering
B15: L224G: ADA2 variant SEQ ID NO:44 (protein)
chain: B1 chain with L221G, D452K
modifications: human ADA2 L221G, mature numbering
B16: E182D: ADA2 variant SEQ ID NO:45 (protein)
chain: B1 chain with E179D, D452K
modifications: human ADA2 E179D, mature numbering
B17: E182A: ADA2 variant SEQ ID NO:46 (protein)
chain: B1 chain with E179A, D452K
modifications: human ADA2 E179A, mature numbering
B18: E182S: ADA2 variant SEQ ID NO:47 (protein)
chain: B1 chain with E179S, D452K
modifications: human ADA2 E179S, mature numbering

Experiment: Adenosine deaminase (ADA) enzymatic activity assay kit
Type: biochemical
Details: not given
Description: Adenosine deaminase activity was determined using an adenosine deaminase (ADA) assay kit (Genway, San Diego, Calif.; Cat. No. BQ014EALD) with minor modifications. The ADA assay is based on the enzymatic deamination of adenosine to inosine, which is converted to hypoxanthine by purine nucleoside phosphorylase (PNP). Hypoxanthine is then converted to uric acid and hydrogen peroxide by xanthine oxidase (XOD). Hydrogen peroxide is further reacted with N-Ethyl-N-(2-hydroxy-3-sulfopropyl)-3-methylaniline (EHSPT) and 4-aminoantipyrine (4-AA) in the presence of peroxidase (POD) to generate quinone dye, which is monitored in a kinetic manner.
Briefly, 5 μL samples in duplicates (at appropriate dilutions to measure steady-state, non-saturating enzyme activity) were added to 120 μL R1 reagent (provided by the manufacturer; 50 mM Tris HCL, pH 8.0, 2 mM 4-AA, 0.1 U/mL PNP, 0.2 U/mL XOD, 0.6 U/mL peroxidase) in a 96 well plate, according to manufacturer's instructions. The mixtures were incubated at 37° C. for approximately 5 min and 60 μL of R2 reagent (provided by the manufacturer; 50 mM Tris HCl, pH 4.0, 10 mM Adenosine, 2 mM EHSPT) was added to the mixtures. Then, change in absorbance (AA) at 556 nm over time at 37° C. was measured. One unit of ADA is the amount of ADA that generates one μmole of inosine from adenosine per minute at 37° C. Adenosine deaminase activity in mU/mL was calculated using the following formula: 1 mU/mL=(ΔA/min×Tv)/(Sv×ϵ×1) • where Tv=total volume (185 μL), Sv=sample volume (5 μL), ϵ=32.2×10^−3 μM^−1 cm^−1, 1=0.5 cm.
Adenosine deaminase activity of WT rHuADA2 and variants tested above were determined using the adenosine deaminase activity (ADA) assay described in Example 4. Activity was assessed on purified rHuADA2 WT and variants that were diluted to 5 μg/mL, and then serially diluted 2 fold to generate 4 measurements.
Adenosine deaminase activity of PEGylated rHuADA2 and variants was assessed using the method described in Example 4, and compared to the activity of the corresponding non-PEGylated form.
Selected candidate variants described in Table 8 above, containing an amino acid substitution in a residue that play a role in enzymatic activity, were assessed for their adenosine deaminase activity using the method described in Example 4. To perform the experiments, purified WT rHuADA2 and tested variants were prepared at 5 μg/mL concentration to normalize the amount of protein in each experiment.

Molecule	enzymatic activity relative to WT rHuADA2
B1	improved enzymatic activity

Same assay, conditions: protein diluted to 5 μg/mL, serially diluted 2 fold (Table 21)

Molecule	adenosine deaminase activity mU/mL	ΔA/min, adenosine deaminase activity
B1	97.9 mU/mL	42.6
B2	28 mU/mL	12.2
B3	67.3 mU/mL	29.3
B4	16.3 mU/mL	7.1
B5	14 mU/mL	6.1
B6	11.4 mU/mL	4.9
B7	18.7 mU/mL	8.1

Same assay, conditions: purified protein at 5 μg/mL

Molecule	Adenosine deaminase activity mU/ml	Adenosine deaminase activity ΔA/min
B8	50.4 mU/ml	21.9 ΔA/min
B9	119.1 mU/ml	51.8 ΔA/min
B10	118.5 mU/ml	51.5 ΔA/min
B11	81.5 mU/ml	35.4 ΔA/min
B12	31.2 mU/ml	13.6 ΔA/min
B13	100.1 mU/ml	43.5 ΔA/min
B14	96.1 mU/ml	41.8 ΔA/min
B15	88.2 mU/ml	38.3 ΔA/min
B16	18.1 mU/ml	7.8 ΔA/min
B17	8.6 mU/ml	3.7 ΔA/min
B18	9.5 mU/ml	4.1 ΔA/min

Same assay, conditions: purified protein at 5 μg/mL; compared to WT-ADA2

Molecule	% of WT activity
B8	65%
B9	153%
B10	152%
B11	104%
B12	40%
B13	128%
B14	123%
B15	113%
B16	23%
B17	11%
B18	12%

Same assay, conditions: relative to rHuADA2 WT (Table 21)

Molecule	% activity vs. WT
B1	125.5%
B2	35.9%
B3	86.3%
B4	20.9%
B5	18%
B6	14.6%
B7	24%
